{"source": "patent US20240294611A1", "key": {"[1]": {"biological_target": "SARS-CoV-2 D614G spike without stabilizing modifications (on cells or pseudovirus) (SARS-CoV-2) (UniProt P0DTC2)", "test": "cell-based or functional assay"}, "[2]": {"biological_target": "SARS-CoV-2 B.1.1.7 (variant Alpha) spike on pseudovirus (SARS-CoV-2) (UniProt P0DTC2)", "test": "cell-based or functional assay"}}}
{"substance": "isotype control antibody with irrelevant binding", "values": [{"measurement": "Pseudovirus IC50", "setting": "[1]", "result": "> 5", "unit": "µM"}, {"measurement": "Pseudovirus IC50", "setting": "[2]", "result": "> 5", "unit": "µM"}]}
